B1: MYT1349 (antibody, V domains shown)
VH: QVQLVQSGAEVKKPGASVKVSCKASGYTFTNYDINWVRQAPGQGLEWIGWIYPHDGSTKYNEKFKAKATLTADTSTSTAYMELRSLRSDDTAVYYCASGYEDAMDYWGQGTTVTVSS
VL: DIQMTQSPSSLSASVGDRVTINCKASQDINSYLSWFQQKPGKAPKTLIYRANRLVDGVPSRFSGSGSGQDYTLTISSLQPEDFATYYCLQYDEFPLTFGGGTKVEIK
notes: IgG; vadastuximab VH variant #15 (G54H)
B2: MYT2649 (antibody, V domains shown)
VH: B1 VH with F29H, T30H, H54G
VL: B1 VL
notes: IgG; vadastuximab VH combination #1 (F29H+T30H)
B3: MYT1354 (antibody, V domains shown)
VH: B1 VH with H54G, K59H
VL: B1 VL
notes: IgG; vadastuximab VH variant #20 (K59H)
B4: MYT1361 (antibody, V domains shown)
VH: B1 VH with H54G, A66H
VL: B1 VL
notes: IgG; vadastuximab VH variant #27 (A66H)
B5: MYT2650 (antibody, V domains shown)
VH: B1 VH with F29H, H54G, D105H
VL: B1 VL
notes: IgG; vadastuximab VH combination #2 (F29H+D105H)
B6: MYT2659 (antibody, V domains shown)
VH: B1 VH with H54G
VL: B1 VL with N30H
notes: IgG; vadastuximab VL variant #7 (N30H)
B7: MYT1363 (antibody, V domains shown)
VH: B1 VH with H54G, S98H
VL: B1 VL
notes: IgG; vadastuximab VH variant #29 (S98H)
B8: MYT2656 (antibody, V domains shown)
VH: B1 VH with H54G
VL: B1 VL with Q27H
notes: IgG; vadastuximab VL variant #4 (Q27H)
B9: MYT1356 (antibody, V domains shown)
VH: B1 VH with H54G, N61H
VL: B1 VL
notes: IgG; vadastuximab VH variant #22 (N61H)
B10: MYT2652 (antibody, V domains shown)
VH: B1 VH with F29H, T30H, H54G, D105H
VL: B1 VL
notes: IgG; vadastuximab VH combination #4 (F29H+T30H+D105H)
B11: MYT2662 (antibody, V domains shown)
VH: B1 VH with H54G
VL: B1 VL with L33H
notes: IgG; vadastuximab VL variant #10 (L33H)
B12: MYT2654 (antibody, V domains shown)
VH: B1 VH with H54G
VL: B1 VL with A25H
notes: IgG; vadastuximab VL variant #2 (A25H)
B13: MYT2658 (antibody, V domains shown)
VH: B1 VH with H54G
VL: B1 VL with I29H
notes: IgG; vadastuximab VL variant #6 (I29H)
B14: MYT1366 (antibody, V domains shown)
VH: B1 VH with H54G, E101H
VL: B1 VL
notes: IgG; vadastuximab VH variant #32 (E101H)
B15: MYT1352 (antibody, V domains shown)
VH: B1 VH with H54G, S57H
VL: B1 VL
notes: IgG; vadastuximab VH variant #18 (S57H)
B16: MYT1357 (antibody, V domains shown)
VH: B1 VH with H54G, E62H
VL: B1 VL
notes: IgG; vadastuximab VH variant #23 (E62H)
B17: MYT1360 (antibody, V domains shown)
VH: B1 VH with H54G, K65H
VL: B1 VL
notes: IgG; vadastuximab VH variant #26 (K65H)
B18: MYT1350 (antibody, V domains shown)
VH: B1 VH with H54G, D55H
VL: B1 VL
notes: IgG; vadastuximab VH variant #16 (D55H)
B19: MYT1359 (antibody, V domains shown)
VH: B1 VH with H54G, F64H
VL: B1 VL
notes: IgG; vadastuximab VH variant #25 (F64H)
B20: MYT2653 (antibody, V domains shown)
VH: B1 VH with H54G
VL: B1 VL with K24H
notes: IgG; vadastuximab VL variant #1 (K24H)
B21: MYT2651 (antibody, V domains shown)
VH: B1 VH with T30H, H54G, D105H
VL: B1 VL
notes: IgG; vadastuximab VH combination #3 (T30H+D105H)
B22: MYT2660 (antibody, V domains shown)
VH: B1 VH with H54G
VL: B1 VL with S31H
notes: IgG; vadastuximab VL variant #8 (S31H)
B23: MYT1351 (antibody, V domains shown)
VH: B1 VH with H54G, G56H
VL: B1 VL
notes: IgG; vadastuximab VH variant #17 (G56H)
B24: MYT2657 (antibody, V domains shown)
VH: B1 VH with H54G
VL: B1 VL with D28H
notes: IgG; vadastuximab VL variant #5 (D28H)
B25: MYT1370 (antibody, V domains shown)
VH: B1 VH with H54G, D105H
VL: B1 VL
notes: IgG; vadastuximab VH variant #36 (D105H)
B26: MYT1365 (antibody, V domains shown)
VH: B1 VH with H54G, Y100H
VL: B1 VL
notes: IgG; vadastuximab VH variant #31 (Y100H)
B27: MYT1353 (antibody, V domains shown)
VH: B1 VH with H54G, T58H
VL: B1 VL
notes: IgG; vadastuximab VH variant #19 (T58H)
B28: MYT1355 (antibody, V domains shown)
VH: B1 VH with H54G, Y60H
VL: B1 VL
notes: IgG; vadastuximab VH variant #21 (Y60H)
B29: MYT1371 (antibody, V domains shown)
VH: B1 VH with H54G, Y106H
VL: B1 VL
notes: IgG; vadastuximab VH variant #37 (Y106H)
B30: MYT2655 (antibody, V domains shown)
VH: B1 VH with H54G
VL: B1 VL with S26H
notes: IgG; vadastuximab VL variant #3 (S26H)
B31: MYT1358 (antibody, V domains shown)
VH: B1 VH with H54G, K63H
VL: B1 VL
notes: IgG; vadastuximab VH variant #24 (K63H)

Residue numbers refer to the chain shown, from its start. Names may count otherwise.

In the assay the target is CD33 (Sino Biological, Cat #12238-H08H) (UniProt P20138 18-259). The experiment in a line: BLI, IgG captured on anti-human Fc sensor, 50 nM CD33, pH 7.4 vs pH 5.4. For orientation: Biolayer interferometry detects binding as a change in optical thickness at a sensor tip.
Sequence of CD33 (Sino Biological, Cat #12238-H08H) (P20138 18-259 limits assumed): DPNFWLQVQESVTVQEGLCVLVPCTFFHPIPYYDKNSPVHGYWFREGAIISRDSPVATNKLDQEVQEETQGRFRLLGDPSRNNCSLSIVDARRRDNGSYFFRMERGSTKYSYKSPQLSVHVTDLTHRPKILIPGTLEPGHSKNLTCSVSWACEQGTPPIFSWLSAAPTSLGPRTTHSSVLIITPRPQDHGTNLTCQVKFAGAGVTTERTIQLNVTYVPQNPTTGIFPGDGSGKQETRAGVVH
Regarding B1, the binding result is “binds”. B2: the binding result is “binds”.

Take B3: the binding result is reported as “binds”. B4: the binding result is “binds”. With B5, the binding result is recorded as “binds”. The value for B6 was “binds”; that for B7 was “binds”; that for B8 was “binds”. The value for B9 was “binds”; that for B10 was “binds”; that for B11 was “binds”.

As for B12, the binding result is reported as “binds”. The entry for B13 is “binds”; for B14 it is “binds”. Turning to B15, the binding result is given as “binds”.

Turning to B16, the binding result is listed as “binds”.

Take B17: the binding result is listed as “binds”. With B18, the binding result is recorded as “binds”. Take B19: the binding result is “binds”. As to B20, the binding result is “binds”. Consider B21, for which the binding result is reported as “binds”. In the case of B22, the binding result is given as “binds”. For the molecule B23, the binding result was “binds”. Consider B24, for which the binding result is “binds”. Turning to B25, the binding result is “binds”.

As for B26, the binding result is listed as “binds”.

As to B27, the binding result is reported as “binds”. Regarding B28, the binding result is “binds”.

Turning to B29, the binding result is reported as “binds”.

On to B30, for which the binding result is “binds”.

As for B31, the binding result is given as “binds”.

The record behind these values is patent US20220324969A1 (MYTHIC THERAPEUTICS, published 2022).
